Data taken from a protein production outcome set (Wang et al. 2014).

Test: label from the status in PepcDB records

Sequence	protein production
MNNQSVDVDLITRFDNEAKLHALDSVYAIAEFDLAGKLIEANPLFCKMLGYKKEDIIQKSHTLFLPEAQRQKHDHFWHDVIKGNINAGEFQRKTQKGDIIWLHAAYTPIIDHSGRRIGVIKLALDITQEKRLMSEHRAQLDAIENAQGVIEFDKDGYITHVNKHYLILTGYEAKEILGLHHKSLCDPIYTEQADYQTFWETLHRGHPISGRFHRLGKGNHSFWIQATYSPVMDSDGNVRKIIKYAHNITQNVETEKKAHQQGIILDILLSVHDSFLLDHNLPSACDKVFERLLDVTNSSFGFIATLQEDEDGQSLYLPAISNLAWDEETLTWYRHQRRTHGGLRLRKLDNLFGHVVTHNTVVCTNSLLRQKAGRDLPPIHPALHSLLGIPITHNGKTVGMIALANRREGYDQTMIELLAPLVKTLGIIIHARLLEDERTQIEASLRFNAGHDFLTGLPNRSSFFEQASAFFLLRQQNQHADKSCLAIIDIDLFKNINDQFGHLAGDAVLKELAMLMRMSLRQEDLVARIGGEEFIILLKDVPYQTAVMAIERIRKAIEQHTLEYDRQNLNFTISAGIAAYRSDLASVEDWIQLADENLYAAKRQGRNCVK	failed
MEGSTGFDGDATTFFAPDAVFGDRVRRFQEFLDTFTSYRDSVRSIQVYNSNNAANYNDDQDDADERDLLGDDDGDDLEKEKKAASSTSLNILPHRIIISLDDLREFDRSFWSGILVEPAYFIPPAEKALTDLADSMDDVPHPNASAVSSRHPWKLSFKGSFGAHALSPRTLTAQHLNKLVSVEGIVTKTSLVRPKLIRSVHYAAKTGRFHYRDYTDATTTLTTRIPTPAIYPTEDTEGNKLTTEYGYSTFIDHQRITVQEMPEMAPAGQLPRSIDVILDDDLVDKTKPGDRVNVVGVFKSLGAGGMNQSNSNTLIGFKTLILGNTVYPLHARSTGVAARQMLTDFDIRNINKLSKKKDIFDILSQSLAPSIYGHDHIKKAILLMLMGGVEKNLENGSHLRGDINILMVGDPSTAKSQLLRFVLNTASLAIATTGRGSSGVGLTAAVTTDRETGERRLEAGAMVLADRGVVCIDEFDKMTDVDRVAIHEVMEQQTVTIAKAGIHTTLNARCSVIAAANPVFGQYDVNRDPHQNIALPDSLLSRFDLLFVVTDDINEIRDRSISEHVLRTHRYLPPGYLEGEPVRERLNLSLAVGEDADINPEEHSNSGAGVENEGEDDEDHVFEKFNPLLQAGAKLAKNKGNYNGTEIPKLVTIPFLRKYVQYAKERVIPQLTQEAINVIVKNYTDLRNDDNTKKSPITARTLETLIRLATAHAKVRLSKTVNKVDAKVAANLLRFALLGEDIGNDIDEEESEYEEALSKRSPQKSPKKRQRVRQPASNSGSPIKSTPRRSTASSVNATPSSARRILRFQDDEQNAGEDDNDIMSPLPADEEAELQRRLQLGLRVSPRRREHLHAPEEGSSGPLTEVGTPRLPNVSSAGQDDEQQQSVISFDNVEPGTISTGRLSLISGIIARLMQTEIFEEESYPVASLFERINEELPEEEKFSAQEYLAGLKIMSDRNNLMVADDKVWRV	failed
MFASLVIPVSAQANSGEMPQEQQLAVKYMDALTEHDYKTLITFYNRDSIFFDKTANRKYTGGRFIIDFLERAHQGVLEYDFNIEHMYNAGSLVVMIGNYHFKGPGEQFGKPGKIIDVAIPAVTSLKLDMLNRRVTEHVDLIDYQTMSDQLAMQ	not failed
MEKDLLDKLGQHLVWRMGRAEDEDVLVVRVGLASATPRFRELPRLLNLPEAEMRRLVQEGRVRVEWVEE	not failed
MAGNAPLQQVQKKWAECQYSTPDGDEKEQCFHRAIAKTSIYLDREPGNPELTVWLAINKASLAGAQGGFGALSLAKEAKSLLEGVIATSPQTLDGSAYTSLGSLYYKVPGWPIGFGDDDKAEEMLKKALEINPKGIDPNYFYGDFLAEEGRDKEAKVYLTRAMQASPRPDRPLADKGRKLEIEATLGRLKLEHHHHHH	not failed
MPTFDHGNLSLGELELTVLYDEERYDIVEQTETVQVDLEGPRGVLTVFRFARPSYEVFVDLTEAGEGSHTVDVEHRGFPGDLAVTVEPRMARVQLEERQTVSVPVTVEMINLEHHHHHH	not failed
IRSIWENNGFGLMSSKTMTDFDYWISDFEKIGASQKEAEQLIVKAIEIAIDANARNYNYINAILKDWEQRGFKSVEEREAARKQKKTTKKQKSNTGHSDYDDLGF	not failed
MGGDLRKCSFIKLEAHQNRVMTCVWCNKKGLLATSGNDGTIRVWNVTKKQYSLQQTCVFNRLEGDAEESLGSPSDPSFSPVSWSISGKYLAGALEKMVNIWQVNGGKGLVDIQPHWVSALAWPEEGPATTWSGESPELLLVGRMDGSLGLIEVVDVSTMHRRELEHCYRKDVSVTCIAWFSEDRPFAVGYFDGKLLMGTKEPLEKGGIVLIDAHKVKTIFFMLAFLFCLVFCVYVF	failed
EYGYEDLRESSNSLLNHQLSEIDQARLYSCLDHMREVLGDAVPDDILTEAILKHKFDVQKALSVVLEQDG	not failed
MQNELQKYDDTINIAFFGLDRRQKTDISRSDSIMILTMDPTHKKLKLSSIMRDTYVNVDGHGMTKITHAYAYGGPQLAIKTINENFNLNIKDYVTVDFYGLEKIIDKLNGVEVDVQPDEVNYLNSYIDEVSKYEKVTPNHVSSAGKQLLDGRQAVAYSRIRYTAGGDFQRTERQRTVLMAVFNKMKAQGKSNMLSMMDELLPYAETDLGSLDIAKYGAKFLSSNIDSIDQERFPVDGYCSGITVDNVWYLKTDLGVTSDQMKKYIFEDVKPTPKASLVNIPAKLEHHHHHH	not failed
MLDPFSEKAKELLKEFGSMNEFLQAIPSLVDIEEVMNRLKFAKESEISEDILNIEDIRDLASFYAQIGALAYSPYGLELELVKKANLRIYTERIRRRRKIRSDEIGIEVKIAVEFPENDIKTLEKVYGGLPEYIVSLREFLDLVPDEKLSSYYVYDGNVYLRKDDLLKVWSKAFERNVEKAVNIIYEIRDELPEFYRRLAGEIRSFAEKEFSDKFREVQAGELKHHLFPPCVKNALRGVPQGMRNYAITVLLTSFLSYARICPNPPRRNVKIRDCIKDMRVITEEILPIIIEAGNRCSPPLFEDQPNEIKNIWYHLGFGYTANPTLEDSGNSTWYFPPNCDKIKANAPQLCTPDKHCRYIRNPLTYYLRRLYLEEKRRAKHADEGSDKGGKERILQLEHHHHHH	failed
MSVCTAHHPMTSPLPPFPLQQRLSRRTLLRFITHTAGIALLNPIGLAQSAPRAGKPPASSSDFISRRPPQAQRRFVSAAVEQQLIHIKAKIADPELAWLFENCYPNTLDTTVSTGTRNGKPDTFIITGDIQALWLRDSAAQVQAYVPLARHDPALRRLFHGLIQRHAACIRLDPYANAFLPDGVSHPLKWSVNDVTQMQPGIGERKWEIDSLCYPIRLAHAYWRASDDIAPFDEDWRQAMHIVLRTFGEQQRLQTPGPYTFQRPALRATETLMLEGYGAPTRPNGMLHSMFRPSDDACTYPLSVPENLFAVITLRQLAAMSEAIHHDAAFASQCRSLAHEIAQATQQFGLMHDADNHPFWAYEVDGYGNQLFMDDANAPSLLSLAYLGCCTSTDPVFLRTRDLAWSARNPYFCQGRAAVGVGSPHTGRHTIWPMSLIHYALSSHDDTQIQHCLHWLKTTHAGTGFMHEAFHQDDPSTFTRSWFAWANSLFGELIVDLAQRKPHLLGVNRSAALLHG	failed
MSTPYRPAMHHAWRLLPLGMAVASPLLAAEPLNLDAVNVTGFSEQESASDYRAGRASIYGLDQALLLDTPASVSVFSEALIKDRQAKLLSDVLRNDASVGEGYAPVGYYENFVVRGFSLNAANSYRINGRSIAGEQNVALENKQQVELLKGLSGLQSGVSEPGGVINYQTKRAQD	failed
MPLELVVIHSYKSSDMKPYLLSAFAAILSTSAMAYDVKSGGKTSVKKDGANAYSLPATNLPMSKRLDFSVGNSFFRNPWVQAPATTDARDGLGPLFNTNGCQNCHIKDGRGHPPEKDDIHAVSMLVRLSIPAMTPKQKKAYIMDGGIPEPTYGGQLQDFALQDQTPEGKIAITYTDVPVEFKDGSKVTLRKPTLKITDLGYGDMHPDTQFSARVAPPMIGLGLLESIPDETLLKWADENDSDSDGISGKVNKVWDIEKGDFSLGRFGWKAGQPTLMQQNAAAFNGDVGLTSHLFPNENCTAKQSLCEELPNGGKPEVSQNILDFVEFYSQHLAVPIRRNVNDPDVQLGQKIFAASGCESCHKTSVKTTKRADRPALSEQLIHPYTDLLLHDMGEGLADHRPEYLANGREWRTPPLWGIGYTEEVNGHTYFLHDGRARNLMEAVLWHGGEAEQAKQNVLSLNQKERDALIAFLNSL	failed
MAWNTNLRWRLPLTCLLLQVIMVILFGVFVRYDFEADAHWWSERTHKNLSDMENEFYYRYPSFQDVHVMVFVGFGFLMTFLQRYGFSAVGFNFLLAAFGIQWALLMQGWFHFLQDRYIVVGVENLINADFCVASVCVAFGAVLGKVSPIQLLIMTFFQVTLFAVNEFILLNLLKVKDAGGSMTIHTFGAYFGLTVTRILYRRNLEQSKERQNSVYQSDLFAMIGTLFLWMYWPSFNSAISYHGDSQHRAAINTYCSLAACVLTSVAISSALHKKGKLDMVHIQNATLAGGVAVGTAAEMMLMPYGALIIGFVCGIISTLGFVYLTPFLESRLHIQDTCGINNLHGIPGIIGGIVGAVTAASASLEVYGKEGLVHSFDFQGFNGDWTARTQGKFQIYGLLVTLAMALMGGIIVGLILRLPFWGQPSDENCFEDAVYWEMPEGNSTVYIPEDPTFKPSGPSVPSVPMVSPLPMASSVPLVP	not failed
MSLHETFNRSAFSQFINGGQGRVLRLAAGLGFLAVGLVYRDRALGLAAMAWSVLPLTAGGFDVCYISAALGGPLSGEKIRRLRR	failed
MERAFMLNGLLVNLVSGLIVMFISAILYYRKPERKWLLIIIVIGMMSVVTAGIRMLVA	failed
QKEKCFKCNKCEKTFSCSKYLTQHERIHTRGVK	not failed
MSLSEGTFEVGKNTFLLNGEPFVVKAAEIHYPRIPKEYWEHRIKMCKALGMNTICLYVFWNFHEPEEGRYDFAGQKDIAAFCRLAQENGMYVIVRPGPYVCAEWEMGGLPWWLLKKKDIKLREQDPYYMERVKLFLNEVGKQLADLQISKGGNIIMVQVENEYGAFGIDKPYISEIRDMVKQAGFTGVPLFQCDWNSNFENNALDDLLWTINFGTGANIDEQFKRLKELRPDTPLMCSEFWSGWFDHWGAKHETRSAEELVKGMKEMLDRNISFSLYMTHGGTSFGHWGGANFPNFSPTCTSYDYDAPINESGKVTPKYLEVRNLLGNYLPEGETLPEIPDSIPTIAIPTIKMTEMAVLFDNLPHPKESEDIRTMEAFDQGWGSILYRTSLSASDKEQTLLITEAHDWAQVFLNGKKLATLSRLKGEGVVKLPPLKEGDRLDILVEAMGRMNFGKGIYDWKGITEKVELQSDKGVELVKDWQVYTIPVDYSFARDKQYKQQENAENQPAYYRSTFNLNELGDTFLNMMNWSKGMVWVNGHAIGRYWEIGPQQTLYVPGCWLKKGENEIIILDMAGPSKAETEGLRQPILDVQRGNGAYAHRKMGEGHHHHHH	not failed
MNRARIIVAGIGPGGASDITPAVLSAIGRSDVVVGYKYYFRFIEPYLRPDTHCVDTGMKKERQRAEEAFGYALSGKTVCVISSGDAGIYGMAPLIYEMKRAKGVEMDIEVLPGISAFQKAASLLGAPIGHDLCLISLSDLMTPWPIIEKRIVAAASADFVTAIYNPKSEGRYWQLYRFVEIFMQYRSADTPVGLVRQAGREEEQVTVTTLGEFDPEVVDMFTVVLVGNSQSYCYEGHFITPRGYYPEEEIEAKGIGQEIMIKSFRTIEKELHRQDWPLDHKWALLHAIHTTADFDMENILYTDAGAVASLYEMIEAGRLRTIVTDVTMVTSGIRKGALERLGVEAKCYLHDPRVAELAARHGITRTQAGIRLAVEEHPDALFAFGNAPTALQELADLIRRGKASPAGIIAAPVGFVHVQESKHAVKPFRSIPKIIVEGRKGGSNLAATLVNAILCYNDAEQLRPGRDV	failed
